Test results as given in article PMC3470933 (Molecular Microbiology, 2012).

T1: T. brucei pyridoxal kinase (TbPdxK) (Trypanosoma brucei, UniProt O15927)
T1 sequence (O15927 1-300): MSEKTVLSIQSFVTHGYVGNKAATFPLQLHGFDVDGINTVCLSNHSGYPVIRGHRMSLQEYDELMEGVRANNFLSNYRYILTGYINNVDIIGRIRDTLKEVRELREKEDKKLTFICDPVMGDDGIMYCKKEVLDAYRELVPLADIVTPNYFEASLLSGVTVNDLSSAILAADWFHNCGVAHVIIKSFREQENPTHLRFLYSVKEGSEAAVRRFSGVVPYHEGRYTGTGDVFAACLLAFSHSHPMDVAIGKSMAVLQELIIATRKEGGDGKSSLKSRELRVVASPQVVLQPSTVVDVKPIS

B1: T. brucei pyridoxal kinase (TbPdxK) (Trypanosoma brucei) (protein)
chain: T1 sequence (O15927 1-300)

Assays:
[1] = biological target: T1, T. brucei pyridoxal kinase (TbPdxK); experiment: coupled PK/LDH assay; format: biochemical; conditions: read-out: Km^app
purified protein [2] = substrate: Cc1ncc(CO)c(CN)c1O; experiment: purified protein; format: biochemical, Trypanosoma brucei; conditions: ATP, Mg2+
purified protein [3] = substrate: Cc1ncc(CO)c(C=O)c1O; experiment: purified protein; format: biochemical, Trypanosoma brucei; conditions: ATP, Mg2+
purified protein [4] = substrate: Cc1ncc(CO)c(CO)c1O; experiment: purified protein; format: biochemical, Trypanosoma brucei; conditions: ATP, Mg2+

Molecule	Km [1]	Km (purified protein [2])	Km (purified protein [3])	Km (purified protein [4])
COCc1c(CO)cnc(C)c1O [GT, ginkgotoxin]	46.6 ± 10.2 µM	–	–	–
B1	–	59.4 ± 14.8 µM	1.65 ± 0.14 µM	48.0 ± 12.7 µM
